# Test results: patent US10876098B2, “Polynucleotide, host cell and a method to recombinantly produce the protein encoded by said polynucleotide having peroxygenative activity” (CONSEJO SUPERIOR DE INVESTIGACIONES CIENTIFICAS (CSIC), priority 2015, dated 2020)
# Numbering of substitutions follows the chain as printed. Numbers in names are those of the source.
# T1: Agrocybe aegerita peroxygenase AaeUPO1 variant JaWa (PaDa-I + G241D, R257K: V57A, L67F, V75I, G241D, I248V, R257K, F311L), SEQ ID NO: 24 (Cyclocybe aegerita, UniProt B9W4V6, F354L/G284D/I291V/L110F/R300K/V100A/V118I)
# T1 sequence (B9W4V6 44-371 V100A/L110F/V118I/G284D/I291V/R300K/F354L): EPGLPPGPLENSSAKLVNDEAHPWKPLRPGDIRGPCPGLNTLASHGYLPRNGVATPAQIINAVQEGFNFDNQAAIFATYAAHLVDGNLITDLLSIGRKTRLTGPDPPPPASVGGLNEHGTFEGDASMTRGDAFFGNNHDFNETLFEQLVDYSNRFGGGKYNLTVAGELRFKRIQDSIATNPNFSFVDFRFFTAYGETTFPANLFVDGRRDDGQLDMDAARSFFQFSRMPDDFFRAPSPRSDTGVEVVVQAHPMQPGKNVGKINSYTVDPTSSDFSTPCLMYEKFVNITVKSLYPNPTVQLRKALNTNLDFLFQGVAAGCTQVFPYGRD
# B1: PaDa-I: AaeUPO1 mutant with L67F, I248V, F311L, V75I, V57A and evolved signal peptide, SEQ ID NO: 18; previously published parental (protein)
# chain: MKYFPLFPTLVYAVGVVAFPDYASLAGLSQQELDAIIPTLEAREPGLPPGPLENSSAKLVNDEAHPWKPLRPGDIRGPCPGLNTLASHGYLPRNGVATPAQIINAVQEGFNFDNQAAIFATYAAHLVDGNLITDLLSIGRKTRLTGPDPPPPASVGGLNEHGTFEGDASMTRGDAFFGNNHDFNETLFEQLVDYSNRFGGGKYNLTVAGELRFKRIQDSIATNPNFSFVDFRFFTAYGETTFPANLFVDGRRDDGQLDMDAARSFFQFSRMPDDFFRAPSPRSGTGVEVVVQAHPMQPGRNVGKINSYTVDPTSSDFSTPCLMYEKFVNITVKSLYPNPTVQLRKALNTNLDFLFQGVAAGCTQVFPYGRD
# B2: AaeUPO1: unspecific peroxygenase UPO (E.C. 1.11.2.1) of Agrocybe aegerita, wild type, SEQ ID NO: 2 / 4 (protein, listed as Agrocybe aegerita)
# chain: B1 chain with A100V, F110L, I118V, V291I, L354F
# B3: JaWa-W24F: W24F variant obtained from the JaWa mutant, SEQ ID NO: 32 (protein)
# chain: B1 chain with W67F, G284D, R300K
# B4: PaDa-I-W24F: W24F variant obtained from the PaDa-I mutant, SEQ ID NO: 30 (protein)
# chain: B1 chain with W67F
# What was measured:
# [1] = cited from earlier work
# [2] = target: T1, Agrocybe aegerita peroxygenase AaeUPO1 variant JaWa (PaDa-I + G241D, R257K: V57A, L67F, V75I, G241D, I248V, R257K, F311L), SEQ ID NO: 24; assay: Kinetic constants, JaWa variant
# Method: In order to calculate the values of Km and kcat, values of Vmax were represented at substrate concentrations and the hyperbole function was adjusted (using SigmaPlot 10.0, wherein the parameter a is equal to kcat and the parameter b, to Km).
# Additionally, the kinetic values of the two variants were determined using substrates of both peroxygenase and peroxidase activity (Table 2), as described in the section on materials and methods.
# [3] = Optimum pH for naphthalene; assay type: biochemical
# Optimum pH for DMP = assay type: biochemical
# [4] = Naphthalene transformation reaction analysed by HPLC-PDA; assay type: biochemical
# Method: A) Products formed after 15 minutes of reaction stopped with 20 μL of HCl 37% (PaDa-I, black bars; JaWa, grey bars). […] C) and D) Monitoring of the reaction for 270 minutes (without adding HCl) for the PaDa-I (C) and JaWa (D) mutants.
# The reactions were analysed by means of chromatography in reverse phase (HPLC). The equipment is composed by a tertiary pump (Varian-Agilent Technologies, USA) coupled to an autosampler (Merck Millipore, MA, USA); an ACE C18 PFP column was used for separation (pentafluorophenyl, 15 cm×4.6 cm) at 45° C. and detection was performed using a photodiode detector (PDA) (Varian-Agilent Technologies, USA). The mobile phase selected was 70% methanol and 30% ddH2O (in both cases with 0.1% of acetic acid) at a flow rate of 0.8 mL/min. The reaction was quantified at 268 nm (based on standard HPLCs). […] For long reaction times, the conditions used were those described earlier but without stopping the reaction with HCl. A sample of 10 μL was injected and analysed at different reaction times (from 1 to 270 minutes).
# Optimum pH for ABTS = assay type: biochemical
# [5] = Isoelectric point by two-dimensional electrophoresis; assay type: physicochemical
# Method: The analyses were performed using an Autoflex III MALDI-TOF-TOF unit with smartbeam laser (Bruker Daltonics). The samples were evaluated in positive mode. The method was calibrated using BSA with standard, thereby covering a range of 15,000 to 70,000 Da. In order to determine the isoelectric point of the UPO variants, 8 μg of pure enzyme were subjected to two-dimensional electrophoresis. These experiments were carried out at the Proteomic and Genomic Service of the Biological Research Centre (CIB-CSIC, Spain).
# [6] = Thermostability assay (T50), culture supernatants, residual activity with ABTS; assay type: physicochemical; details: culture supernatants; temperature at which the enzyme retains 50% of its activity after 10 minutes of incubation
# Method: An individual S. cerevisiae colony was selected with the corresponding clone (grown in a SC drop-out minimal medium plate: 100 mL of 6.7% yeast nitrogen base, 100 mL of 19.2 g/L uracil-free amino acid supplement, 100 mL of 20% glucose, 1 mL of 25 g/L chloramphenicol and ddH2O up to 1,000 mL) was inoculated in 2 mL of selective minimal medium (as in the SC plate medium, but with 20 g of bacto agar and rafinose instead of galactose) and was incubated for 48 hour at 30° C. and 220 RPM. An aliquot of this culture was taken such that, upon inoculating it in 5 mL of new minimal medium, optical density at 600 nm would have a value of 0.25 (optical density, OD600=0.25). This starter was incubated until completing two full growth cycles (between 6 and 8 hours), at which time 1 mL of cells were taken to inoculate 9 mL of expression medium in a 100 mL flask (OD600=0.1). This culture of each clone was incubated for 72 hours at 25° C. and 220 RPM (at peak UPO activity; OD600=25-30), the cells were separated by centrifugation (10 minutes at 4,500 RPM and 4° C.) and supernatant was filtered (using a glass and nitrocellulose filter with a pore size of 0.45 μm). Appropriate dilutions of the supernatants were prepared so that aliquots of 20 μL would give rise to a linear response in kinetic mode. 50 μL of supernatant were used for each point in a temperature gradient created by means of thermocyclator, from 30 to 80° C. After incubating for 10 minutes, the aliquots were cooled in ice for 10 minute and tempered at room temperature for 5 minutes. […] The thermostability values were calculated in accordance with the ratio between the residual activities incubated at different temperatures and the value of initial activity at room temperature. The value of T50 was determined as the value of the temperature at which the protein loses 50% of it initial activity after incubating for 10 minutes.
# An individual S. cerevisiae colony was selected with the corresponding clone (grown on a SC drop-out minimal medium plate: 100 mL of 6.7% yeast nitrogen base, 100 mL of 19.2 g/L uracil-free amino acid supplement, 100 mL of 20% glucose, 1 mL of 25 g/L chloramphenicol and ddH2O up to 1,000 mL), was inoculated in 3 mL of selective minimal medium (like the SC plate medium, but with 20 g of bacto agar and rafinose instead of galactose) and incubated for 48 hours at 30° C. and 220 RPM. […] The thermostability values were calculated in accordance with the ratio between the residual activities incubated at different temperatures and the value of initial activity at room temperature. The value of T50 was determined as as the temperature value at which the protein loses 50% of its initial activity after incubating for […].
# [7] = Total turnover number (TTN) for synthesis of 5′-hydroxypropranolol from propranolol; assay type: biochemical; details: 0.03 μM enzyme, propranolol, 2 mM H2O2 added every 10 minutes
# Method: FIG. 15 Calculation of the total turnover number (TTN) of AaeUPO and SoLo.
# (§1) The reactions were analysed by means of chromatography in reverse phase (HPLC). The equipment was composed of a tertiary pump (Varian-Agilent Technologies, USA) coupled to an autosampler (Merck Millipore, MA, USA); for the separation, a Zorbax Eclipse plus C18 column (15 cm×4.6 cm) at 40° C. was used and the detection was performed using a photodiode detector (PDA) (Varian, Agilent Technologies, USA). The mobile phase selected was a gradient from 10% methanol and 90% ddH2O (in both cases with 0.1% of acetic acid) up to 90% methanol and 10% ddH2O at a flow rate of 0.8 mL/min. The reaction was quantified at 280 nm (based on HPLC standards). […] The standard deviations were less than 5% in all cases.
# [8] = Turnover with 5′-hydroxypropranolol as substrate, HPLC; assay type: biochemical; details: 0.03 μM enzyme, 0.4 mM 5′-hydroxypropranolol, 2 mM H2O2, absence of ascorbic acid
# Method: FIG. 14 Turnover rates of AaeUPO, JaWa and SoLo. […] The disappearance of the product 5′-hydroxypropranolol can be observed due to the formation of its corresponding quinone by means of the peroxidase activity of the enzyme.
# as §1
# [9] = Activity of W24F variants on peroxidase substrates, flask culture supernatants; assay type: biochemical; details: all the tested substrates, relative to respective parental
# Source text: (§2) FIG. 5 W24F variants obtained by means of directed mutagenesis. A) Model built on the crystal structure of the AaeUPO1 enzyme (PDB access number: 2YOR), comprising the mutations of the JaWa variant as well as the W24F modification with respect to wild AaeUPO1. The model is shown without a surface, with a transparent surface and with an opaque surface, showing position W24. B) Activity of the W24F variants using different substrates with respect to their respective parentals, relativised to the PaDa-I activity. The experiments were carried out using 100 mL flask culture supernatants.
# [10] = Activity of W24F variants on peroxygenase substrates, flask culture supernatants; assay type: biochemical; details: relative to respective parental
# Source text: as §2
# [11] = 15 minutes of reaction stopped with HCl, 6.6 nM enzyme, 1 mM naphthalene, 1 mM H2O2
molecule,measurement,setting,value
c1ccc2ccccc2c1 [naphthalene],solubility of the naphthalene in water,[1],31.7 µg/mL
"OO [H2O2, hydrogen peroxide]",Km,"[2]; H2O2, benzyl alcohol as substrate at saturation, pH 7.0",1250 µM
CC(C)NCC(O)COc1cccc2c(O)cccc12 (centres unmarked) [5′-hydroxypropranolol],increase in kcat (up to),"[2]; summary of advantages, variant not named, matches JaWa vs PaDa-I",up to 3.6 fold
"c1ccc2ccccc2c1 [Naphthalene, naphthalene]",decrease in Km,"[2]; JaWa vs PaDa-I, naphthalene",3 times
B1,Optimum pH for naphthalene,[3],6.0
same,Optimum pH for DMP,Optimum pH for DMP,6.0
same,"regioselectivity, 1-naphthol",[4]; [11],92%
same,"regioselectivity, 2-naphthol",[4]; [11],8%
same,time at which formation of the epoxide intermediary reached its maximum,[4]; 270 minute reaction at pH 7.0,~40 min
same,production of 1-naphthol,[4]; 270 minutes at pH 7.0 without stopping the reaction,0.14 mM
same,"total turnover numbers (TTN), 1-naphthol",[4]; calculated using the production value of 1-naphthol after 270 minutes,"20,000 μmoles of product/μmoles of en"
same,regioselectivity against 1-naphthol,"[4]; long reaction times, 270 minutes at pH 7.0 without stopping the reaction",97%
same,Optimum pH for ABTS,Optimum pH for ABTS,4.0
same,pI,[5],5.5
same,"Thermal stability, T50",[6],57.6 °C
B2,Optimum pH for naphthalene,[3],6.5
same,Optimum pH for DMP,Optimum pH for DMP,7.0
same,"TTNs, With ascorbic acid",[7]; 4 mM ascorbic acid,"14,000"
same,"TTNs, Without ascorbic acid",[7]; absence of ascorbic acid,"3,000"
same,5′-hydroxypropranolol maintained without oxidising,[8],oxidise practically the entire product
same,Optimum pH for ABTS,Optimum pH for ABTS,4.0
same,pI,[5],4.9-5.7
B3,reduction of peroxidase activity by the W24F mutation,[9],60%
same,reduction in the activity on naphthalene and NBD by the W24F mutation,[10],50%
B4,reduction of peroxidase activity by the W24F mutation,[9],60%
same,reduction in the activity on naphthalene and NBD by the W24F mutation,[10],50%
